Eight molecules from patent US20180155451A1 (published 2018) can be followed below.

Assay [1] concerns the target T1, FcγRIIb, extracellular domain with C-terminal His tag (human, UniProt P31994 43-217).
T1 construct: extracellular domain; Soluble receptor expressed in FreeStyle293 cells; analyte in Biacore; also called FcgRIIb; 2b; not shown: C-terminal His tag
T1 sequence (looked up): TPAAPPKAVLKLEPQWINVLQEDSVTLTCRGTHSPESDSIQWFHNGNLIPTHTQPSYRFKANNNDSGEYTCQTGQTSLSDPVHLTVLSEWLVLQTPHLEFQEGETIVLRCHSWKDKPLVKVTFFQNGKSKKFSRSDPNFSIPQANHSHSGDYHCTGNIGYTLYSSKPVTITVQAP
The assay is described as follows: SPR (Biacore), captured antibody, FcγR as analyte. In general terms: SPR reads the build-up and loss of mass on a sensor chip optically.

Assay [2] deals with T2, FcγRIIa H (FcγRIIa, type H allotype, His at position 131), extracellular domain with C-terminal His tag (human, UniProt P12318 34-217).
T2 construct: extracellular domain; Soluble receptor expressed in FreeStyle293 cells; analyte in Biacore; also called FcgRIIa H; 2aH; not shown: C-terminal His tag
T2 sequence (looked up): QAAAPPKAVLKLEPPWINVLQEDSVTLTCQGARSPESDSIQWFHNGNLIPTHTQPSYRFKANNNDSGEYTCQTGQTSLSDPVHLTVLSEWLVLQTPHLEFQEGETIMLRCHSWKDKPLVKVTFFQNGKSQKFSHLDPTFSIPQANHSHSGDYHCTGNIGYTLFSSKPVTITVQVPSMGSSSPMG
The assay is described as follows: SPR (Biacore), captured antibody, FcγR as analyte.

Assay [3] deals with T2, FcγRIIa H (FcγRIIa, type H allotype, …). The assay is described as follows: ratio of He/Con_2aH to He/Con_2b (FcγRIIa H over FcγRIIb), SPR.

B1: GpH7-A5/GpH7-B3 variant E269_06M/GpL16-k0 (antibody, human IgG1, kappa)
heavy 1: not shown
heavy 2: not shown
light: DIVMTQSPLSLPVTPGEPASISCQASESLVHSNRNTYLHWYLQKPGQSPQLLIYKVSNRFSGVPDRFSGSGSGTDFTLKISRVEAEDVGVYYCSQNTHVPPTFGQGTKVEIERTVAAPSVFIFPPSDEQLKSGTASVVCLLNNFYPREAKVQWKVDNALQSGNSQESVTEQDSKDSTYSLSSTLTLSKADYEKHKVYACEVTHQGLSSPVTKSFNRGEC
notes: Heterodimerized IgG1; mutation only in the GpH7-B3 chain; also called He Ab
Consider B1, for which, in assay [1], the He/Con_2b is 46.7 relative, GpH7-A5/GpH7-B3/GpL16-k0 = 100. In assay [2], the He/Con_2aH was 73.6 relative, GpH7-A5/GpH7-B3/GpL16-k0 = 100. Further, in assay [3], the “He_2aH/2b (IIaH/IIb)” value was determined as 1.58.

B2: GpH7-A5/GpH7-B3 variant P271_20W/GpL16-k0 (antibody, human IgG1, kappa)
heavy 1: not shown
heavy 2: not shown
light: DIVMTQSPLSLPVTPGEPASISCQASESLVHSNRNTYLHWYLQKPGQSPQLLIYKVSNRFSGVPDRFSGSGSGTDFTLKISRVEAEDVGVYYCSQNTHVPPTFGQGTKVEIERTVAAPSVFIFPPSDEQLKSGTASVVCLLNNFYPREAKVQWKVDNALQSGNSQESVTEQDSKDSTYSLSSTLTLSKADYEKHKVYACEVTHQGLSSPVTKSFNRGEC
notes: as for B1
Take B2: the He/Con_2b in assay [1] was 58.1 relative, GpH7-A5/GpH7-B3/GpL16-k0 = 100. Further, the He/Con_2aH in assay [2] is 77.4 relative, GpH7-A5/GpH7-B3/GpL16-k0 = 100. Further, the “He_2aH/2b (IIaH/IIb)” value in assay [3] was 1.33.

B3: GpH7-A5/GpH7-B3 variant P271_15Y/GpL16-k0 (antibody, human IgG1, kappa)
heavy 1: not shown
heavy 2: not shown
light: DIVMTQSPLSLPVTPGEPASISCQASESLVHSNRNTYLHWYLQKPGQSPQLLIYKVSNRFSGVPDRFSGSGSGTDFTLKISRVEAEDVGVYYCSQNTHVPPTFGQGTKVEIERTVAAPSVFIFPPSDEQLKSGTASVVCLLNNFYPREAKVQWKVDNALQSGNSQESVTEQDSKDSTYSLSSTLTLSKADYEKHKVYACEVTHQGLSSPVTKSFNRGEC
notes: as for B1
For the molecule B3, the He/Con_2b in assay [1] was 52.3 relative, GpH7-A5/GpH7-B3/GpL16-k0 = 100. Moreover, the He/Con_2aH in assay [2] was 64.6 relative, GpH7-A5/GpH7-B3/GpL16-k0 = 100. In assay [3], the “He_2aH/2b (IIaH/IIb)” value came to 1.24.

B4: GpH7-A5/GpH7-B3 variant E269_11K/GpL16-k0 (antibody, human IgG1, kappa)
heavy 1: not shown
heavy 2: not shown
light: DIVMTQSPLSLPVTPGEPASISCQASESLVHSNRNTYLHWYLQKPGQSPQLLIYKVSNRFSGVPDRFSGSGSGTDFTLKISRVEAEDVGVYYCSQNTHVPPTFGQGTKVEIERTVAAPSVFIFPPSDEQLKSGTASVVCLLNNFYPREAKVQWKVDNALQSGNSQESVTEQDSKDSTYSLSSTLTLSKADYEKHKVYACEVTHQGLSSPVTKSFNRGEC
notes: as for B1
B4: the He/Con_2b in assay [1] is 17.8 relative, GpH7-A5/GpH7-B3/GpL16-k0 = 100. In assay [2], the He/Con_2aH was 51.1 relative, GpH7-A5/GpH7-B3/GpL16-k0 = 100. Further, the “He_2aH/2b (IIaH/IIb)” value in assay [3] came out at 2.87.

B5: GpH7-A5/GpH7-B3 variant Q295_05P/GpL16-k0 (antibody, human IgG1, kappa)
heavy 1: not shown
heavy 2: not shown
light: DIVMTQSPLSLPVTPGEPASISCQASESLVHSNRNTYLHWYLQKPGQSPQLLIYKVSNRFSGVPDRFSGSGSGTDFTLKISRVEAEDVGVYYCSQNTHVPPTFGQGTKVEIERTVAAPSVFIFPPSDEQLKSGTASVVCLLNNFYPREAKVQWKVDNALQSGNSQESVTEQDSKDSTYSLSSTLTLSKADYEKHKVYACEVTHQGLSSPVTKSFNRGEC
notes: as for B1
In the case of B5, the He/Con_2b in assay [1] is 67.5 relative, GpH7-A5/GpH7-B3/GpL16-k0 = 100. In addition, the He/Con_2aH in assay [2] is 103 relative, GpH7-A5/GpH7-B3/GpL16-k0 = 100. The “He_2aH/2b (IIaH/IIb)” value in assay [3] is 1.53.

B6: GpH7-A5/GpH7-B3 variant E269_14T/GpL16-k0 (antibody, human IgG1, kappa)
heavy 1: not shown
heavy 2: not shown
light: DIVMTQSPLSLPVTPGEPASISCQASESLVHSNRNTYLHWYLQKPGQSPQLLIYKVSNRFSGVPDRFSGSGSGTDFTLKISRVEAEDVGVYYCSQNTHVPPTFGQGTKVEIERTVAAPSVFIFPPSDEQLKSGTASVVCLLNNFYPREAKVQWKVDNALQSGNSQESVTEQDSKDSTYSLSSTLTLSKADYEKHKVYACEVTHQGLSSPVTKSFNRGEC
notes: as for B1
For B6, the He/Con_2b in assay [1] was 50.6 relative, GpH7-A5/GpH7-B3/GpL16-k0 = 100. For the same molecule, the He/Con_2aH in assay [2] is 69.6 relative, GpH7-A5/GpH7-B3/GpL16-k0 = 100. The “He_2aH/2b (IIaH/IIb)” value in assay [3] turned out to be 1.37.

B7: GpH7-A5/GpH7-B3 variant E269_20W/GpL16-k0 (antibody, human IgG1, kappa)
heavy 1: not shown
heavy 2: not shown
light: DIVMTQSPLSLPVTPGEPASISCQASESLVHSNRNTYLHWYLQKPGQSPQLLIYKVSNRFSGVPDRFSGSGSGTDFTLKISRVEAEDVGVYYCSQNTHVPPTFGQGTKVEIERTVAAPSVFIFPPSDEQLKSGTASVVCLLNNFYPREAKVQWKVDNALQSGNSQESVTEQDSKDSTYSLSSTLTLSKADYEKHKVYACEVTHQGLSSPVTKSFNRGEC
notes: as for B1
Turning to B7, the He/Con_2b in assay [1] was 42.5 relative, GpH7-A5/GpH7-B3/GpL16-k0 = 100. In assay [2], the He/Con_2aH is 60.9 relative, GpH7-A5/GpH7-B3/GpL16-k0 = 100. Further, the “He_2aH/2b (IIaH/IIb)” value in assay [3] was 1.43.

B8: GpH7-A5/GpH7-B3 variant E269_18N/GpL16-k0 (antibody, human IgG1, kappa)
heavy 1: not shown
heavy 2: not shown
light: DIVMTQSPLSLPVTPGEPASISCQASESLVHSNRNTYLHWYLQKPGQSPQLLIYKVSNRFSGVPDRFSGSGSGTDFTLKISRVEAEDVGVYYCSQNTHVPPTFGQGTKVEIERTVAAPSVFIFPPSDEQLKSGTASVVCLLNNFYPREAKVQWKVDNALQSGNSQESVTEQDSKDSTYSLSSTLTLSKADYEKHKVYACEVTHQGLSSPVTKSFNRGEC
notes: as for B1
As for B8, the He/Con_2b in assay [1] is 44.8 relative, GpH7-A5/GpH7-B3/GpL16-k0 = 100. Also, the He/Con_2aH in assay [2] was 64.4 relative, GpH7-A5/GpH7-B3/GpL16-k0 = 100. The “He_2aH/2b (IIaH/IIb)” value in assay [3] stood at 1.44.
